Experimental data taken from article PMC3084267, “Antibody Engineering Using Phage Display with a Coiled-Coil Heterodimeric Fv Antibody Fragment” (PLoS ONE, 2011).
Changes are numbered by the printed parent chain. Names may count otherwise.

B1: X76 scFv (humanization lead) (scFv, V domains shown)
VH: EVQLVQSGGGVVQPGGSLRLSCAASGYTFTNYGMNWIRQAPGKGLEWVGWINTYTGEPTYAADFKRRVTFSLDTSKSTAYLQLNSLRAEDTAVYYCAKYPHYYGSSHWYFDVWGQGTLVTVSS
VL: DIQMTQSPSSLSASVGDRVTITCSASQDISNYLNWYQQKPGKAPKVLIYFTSSLHSGVPSRFSGSGSGTDFTLTISSLQPEDFATYYCQQYSTVPWTFGQGTKVEIK
notes: as the VH of m4 (WT) with the stated framework changes (Kabat numbering); scFv linker; VL paired with the VH humanization library; likely as the VL of m4; Selected as ccFv on phage, converted to scFv; source: Pichia pastoris X33 (pPIC6 alpha), culture supernatant, purified (Ni-NTA)
B2: X63 scFv (VH-CDR3 variant H97Y, S100aT) (scFv, V domains shown)
VH: B1 VH with Q6E, V11L, I37V, V68F, L83M, H101Y, S105T
VL: B1 VL
notes: as the VH of m4 (WT framework) with the stated VH-CDR3 changes; scFv linker; Selected as ccFv on phage, converted to scFv; source: Pichia pastoris X33 (pPIC6 alpha), culture supernatant, purified (Ni-NTA)
B3: X78 scFv (humanization lead) (scFv, V domains shown)
VH: B1 VH with S17T, S21T, I37V, L83M
VL: B1 VL
notes: as for B1
B4: X65 scFv (VH-CDR3 variant H97Y, S100aR) (scFv, V domains shown)
VH: B1 VH with Q6E, V11L, I37V, V68F, L83M, H101Y, S105R
VL: B1 VL
notes: as the VH of m4 (WT framework) with the stated VH-CDR3 changes; scFv linker; Converted to scFv; source: Pichia pastoris X33 (pPIC6 alpha), culture supernatant, purified (Ni-NTA)
B5: X64 scFv (VH-CDR3 variant S100aR) (scFv, V domains shown)
VH: B1 VH with Q6E, V11L, I37V, V68F, L83M, S105R
VL: B1 VL
notes: as the VH of m4 (WT framework) with the stated VH-CDR3 change; scFv linker; Selected as ccFv on phage, converted to scFv; source: Pichia pastoris X33 (pPIC6 alpha), culture supernatant, purified (Ni-NTA)
B6: X97 scFv (VH-CDR3 mutations of X65 in the X76 framework) (scFv, V domains shown)
VH: B1 VH with H101Y, S105R
VL: B1 VL
notes: as the VH of m8 (X76 framework) with the VH-CDR3 changes of X65; scFv linker; VL as in m8; likely as the VL of m4; source: Pichia pastoris X33 (pPIC6 alpha), culture supernatant, purified (Ni-NTA)
B7: X96 scFv (VH-CDR3 mutations of X65 in the X72 framework) (scFv, V domains shown)
VH: B1 VH with I37V, V68F, L83M, H101Y, S105R
VL: B1 VL
notes: as the VH of m7 (X72 framework) with the VH-CDR3 changes of X65; scFv linker; VL as in m7; likely as the VL of m4; source: Pichia pastoris X33 (pPIC6 alpha), culture supernatant, purified (Ni-NTA)

Biological target: T1, recombinant human VEGF (R&D Systems, 293-VE/CF) (Homo sapiens, UniProt P15692-4)
T1 construct: recombinant human VEGF, R&D Systems 293-VE/CF; also called VEGF antigen; source: bought: R&D Systems (293-VE/CF)
Assay: SPR; Biacore, 25°C; VEGF amine-coupled to a CM5 chip (about 300 RU); monomeric scFv (after Superdex 75) in PBS at 10, 20, 40, 80, 160 nM, 30 µl/min, 5 min association, 10 min dissociation; global fit to 1:1 Langmuir model
Details: both partners purified

T1 sequence (P15692 whole entry): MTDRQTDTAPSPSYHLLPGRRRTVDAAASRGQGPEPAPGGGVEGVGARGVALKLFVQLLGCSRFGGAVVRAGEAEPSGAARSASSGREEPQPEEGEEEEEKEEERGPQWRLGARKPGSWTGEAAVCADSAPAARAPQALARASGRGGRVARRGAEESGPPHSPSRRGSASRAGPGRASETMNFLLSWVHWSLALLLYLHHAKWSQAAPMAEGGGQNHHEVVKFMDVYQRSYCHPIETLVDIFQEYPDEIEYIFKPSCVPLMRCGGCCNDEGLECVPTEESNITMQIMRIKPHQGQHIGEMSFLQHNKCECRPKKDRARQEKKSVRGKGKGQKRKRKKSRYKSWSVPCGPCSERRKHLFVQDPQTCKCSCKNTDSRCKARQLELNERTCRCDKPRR

In order of rising Kd:
1. B4  1.5 nM
2. B2  2.2 nM
3. B1  3.1 nM
4. B5  5.4 nM
5. B3  5.9 nM

Biological target: T1, recombinant human VEGF (R&D Systems, …)
Assay: SPR; Biacore, 35°C; VEGF amine-coupled to a CM5 chip (about 300 RU); monomeric scFv (after Superdex 75) in PBS at 10 to 160 nM; global fit to 1:1 Langmuir model
Details: both partners purified

In order of falling Kd:
1. B6  0.12 nM
2. B7  0.11 nM
